# Data from patent US20210122822A1 (FORTY SEVEN, published 2021).
# Changes are numbered by the printed parent chain.
# B1: NF11 (antibody, V domains shown)
# VH: EVQLLESGGGLVQPGGSLRLSCAASGFTFTSYNMHWVRQAPGKGLEWVGVIYSGNGDTSYAQKFKGRFTISADKSKNTAYLQMNSLRAEDTAVYYCARERDTRFGNWGQGTLVTVSS
# VL: DIVMTQSPLSLPVTPGEPASISCRASESVDIYGQSFMHWYLQKPGQSPQLLIYLASNLESGVPDRFSGSGSGTDFTLKISRVEAEDVGVYYCQQNNEDPYTFGGGTKVEIK
# B2: NF12 (antibody, V domains shown)
# VH: B1 VH with A61N, K65Q
# VL: B1 VL
# B3: NF (antibody, V domains shown)
# VH: B1 VH with A61N
# VL: B1 VL with Q34N
# notes: also called antibody with the new frameworks (NF)
# B4: NF112 (antibody, human IgG1, V domains shown)
# VH: B1 VH with K65Q
# VL: B1 VL
# B5: AF11 (antibody, V domains shown)
# VH: QVQLVQSGAEVKKPGASVKVSCKASGYTFTSYNMHWVRQAPGQGLEWMGVIYSGNGDTSYAQKFKGRVTITADKSTSTAYMELSSLRSEDTAVYYCARERDTRFGNWGQGTLVTVSS
# VL: DIVMTQSPDSLAVSLGERATINCRASESVDIYGQSFMHWYQQKPGQPPKLLIYLASNLESGVPDRFSGSGSGTDFTLTISSLQAEDVAVYYCQQNNEDPYTFGGGTKVEIK
# B6: HF112 (antibody, human IgG1, V domains shown)
# VH: B5 VH with K65Q
# VL: B1 VL
# B7: AF112 (antibody, human IgG1, V domains shown)
# VH: B5 VH with K65Q
# VL: B5 VL
# B8: AF12 (antibody, human IgG1, V domains shown)
# VH: B5 VH with A61N, K65Q
# VL: B5 VL
# B9: AMG191 (antibody, V domains shown)
# VH: B5 VH with A61N
# VL: B5 VL with Q34N
# notes: Humanized form of HB-10716; constant region has an N to E mutation of position 297 (unglycosylated, silenced Fc); kappa light chain implied by the anti-human kappa detection
# B10: AF-3 (antibody, V domains shown)
# VH: B5 VH with A61N, E99D
# VL: B5 VL
# B11: AF-2-1 (antibody, V domains shown)
# VH: B5 VH with N55Q, A61N
# VL: B5 VL
# Tests used:
# [1] = molecular target: T1, human c-Kit-Fc fusion protein (human, UniProt P10721 26-520, limits assumed); assay: ELISA, coated human c-Kit-Fc, FIG. 3D, against AMG191 (members named at paragraph 118)
# T1 construct: not shown: Fc part of the fusion protein
# T1 sequence (P10721 26-520 limits assumed): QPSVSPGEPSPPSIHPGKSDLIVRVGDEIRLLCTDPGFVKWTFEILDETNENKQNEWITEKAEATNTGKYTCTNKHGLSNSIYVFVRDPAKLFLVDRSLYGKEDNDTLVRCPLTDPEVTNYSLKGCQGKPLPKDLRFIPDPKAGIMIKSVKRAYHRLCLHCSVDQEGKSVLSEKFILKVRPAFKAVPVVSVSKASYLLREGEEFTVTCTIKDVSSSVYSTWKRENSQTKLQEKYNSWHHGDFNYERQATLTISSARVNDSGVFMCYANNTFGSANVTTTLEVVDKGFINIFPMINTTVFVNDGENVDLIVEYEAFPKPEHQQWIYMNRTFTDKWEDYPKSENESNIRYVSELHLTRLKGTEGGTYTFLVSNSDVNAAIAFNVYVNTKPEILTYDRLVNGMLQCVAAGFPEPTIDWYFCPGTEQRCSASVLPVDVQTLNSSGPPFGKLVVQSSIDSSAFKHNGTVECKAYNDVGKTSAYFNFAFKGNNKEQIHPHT
# Procedure: (§1) Antigen binding activity measurement by ELISA. 96-well plates (Nunc, Roskilde, Denmark) were coated with 1 ug/ml human c-Kit-Fc fusion protein in phosphate-buffered saline (PBS) for 16 hr at 4° C. After blocking for 1 hr with 0.4% BSA in PBS at room temperature, anti-c-Kit antibodies were added in 1/3 sequential dilutions, and incubated for 1 hr at room temperature. Plates were subsequently washed three times and incubated with HRP-conjugated goat anti-human kappa-specific antibody for 1 hr at room temperature. After washing, plates were developed with TMB. The reaction was stopped with 2M […], and OD was measured at 450 nm.
# [2] = molecular target: T1, human c-Kit-Fc fusion protein; assay: ELISA, coated human c-Kit-Fc
# Procedure: as §1
# [3] = molecular target: T1, human c-Kit-Fc fusion protein; assay: ELISA, coated human c-Kit-Fc, FIG. 3C, against AMG191
# Procedure: as §1
# [4] = molecular target: T1, human c-Kit-Fc fusion protein; assay: ELISA, coated human c-Kit-Fc, against AMG191
# Procedure: as §1
# [5] = molecular target: T1, human c-Kit-Fc fusion protein; assay: ELISA, coated human c-Kit-Fc, FIG. 2C (members named at paragraph 117)
# Procedure: as §1
# [6] = molecular target: T1, human c-Kit-Fc fusion protein; assay: ELISA, coated human c-Kit-Fc; AMG191 is the reference
# Procedure: as §1
# [7] = molecular target: T1, human c-Kit-Fc fusion protein; assay: ELISA, coated human c-Kit-Fc, FIG. 2D (members named at paragraph 117)
# Procedure: as §1
binder,measurement,setting,value
B1,binding result,[1],binds
B2,binding result,[2],binds
B3,binding result,[3],binds
B4,binding result,[2],binds
B5,binding result,[4],binds
B6,binding result,[2],binds
B7,binding result,[5],binds
B8,binding result,[5],binds
B9,binding result,[6],binds
B10,binding result,[7],binds
B11,binding result,[7],binds
